Test [1] addresses T1, human ICOS-mFc (Chimerigen) (human, UniProt Q9Y6W8 21-140, limits assumed).
T1 construct: Bought fusion; also called hICOS; recombinant human ICOS protein; not shown: mouse Fc
T1 sequence: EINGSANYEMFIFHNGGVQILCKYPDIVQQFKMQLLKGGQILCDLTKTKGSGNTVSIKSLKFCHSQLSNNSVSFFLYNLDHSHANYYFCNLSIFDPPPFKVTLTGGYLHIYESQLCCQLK
Put plainly: DELFIA ELISA, coated human ICOS-mFc, N=2. On the procedure:
(§1) Recombinant ICOS proteins, human ICOS-mFc or mouse ICOS-mFc (Chimerigen) were diluted in 1×PBS and added to Black Hi-bind plates (Griener) at 1 μg/ml, 50 μl/well. Recombinant PD-L1 proteins, human PD-L1-Flag-His or mouse-His were diluted in 1×PBS and added to Black Hi-bind plates (Griener) at 4 μg/ml, 50 μl/well. The plates were left overnight at 4° C. The next day plates were washed 3× with 300 μl/well of 1×PBS+0.1% Tween and blocked with 200 μl/well of 1×PBS+1% BSA blocking buffer for 1 hr at RT on a plate shaker. Plates were washed 3× with 300 μl/well of 1×PBS+0.1% Tween.
(§2) However, human-PD-L1 mAb² antibodies were diluted in 1×PBS+0.1% BSA buffer and diluted 1 in 2 from a starting working concentration of 0.066 μM over an 11 point titration. Titrated antibodies were added to the plates, 50 μl/well and left to incubate for 1 hr at R.T on a plate shaker. Plates were washed 3× with 300 μl/well of 1×PBS+0.1% Tween.
(§3) DELFIA® Eu-labelled Anti-human IgG(Perkin-Elmer) was diluted 1:500 in DELFIA Assay buffer (Perkin-Elmer) and added to the assay plate (50 μl/well), left to incubate for 1 hr at RT on a plate shaker. […] After incubation, assay was read on Envision plate reader (Perkin Elmer), Time-resolved fluorescence (TRF) was measured at 615 nm.
In general terms: In an ELISA, binding on a coated surface is turned into a signal by an enzyme label.

The target in test [2] is T2, mouse ICOS-mFc (Chimerigen) (mouse, UniProt Q9WVS0 21-141, limits assumed).
T2 construct: Bought fusion; also called mICOS; recombinant mouse ICOS protein; not shown: mouse Fc
T2 sequence: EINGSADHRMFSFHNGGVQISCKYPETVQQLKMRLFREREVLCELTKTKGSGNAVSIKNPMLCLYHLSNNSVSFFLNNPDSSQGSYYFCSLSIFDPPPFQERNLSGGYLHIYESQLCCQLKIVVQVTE
Put plainly: HTRF neutralisation of mouse B7-H2 binding to mouse ICOS-mFc, n2. The method, then: (§4) 5 μl of human ICOS-mFc (Chimerigen) at 20 nM (5 nM final) or 5 μl of mouse ICOS-mFc (Chimerigen) at 4 nM (1 nM final) were added to relevant assay wells. Plate was incubated for 1 hour (hr) at room temperature (RT).
(§5) After incubation, assay was read on Envision plate reader (Perkin Elmer) using a standard HTRF protocol. 620 nm and 665 nm channel values were exported to Microsoft Excel and % Delta-F and % Neutralisation calculations performed. Titration curves and IC50 values [M] were plotted using Graphpad (Prism). IC50 values were calculated by first transforming the data using equation X=Log(X). The transformed data was then fitted using nonlinear regression, using fitting algorithm, log (inhibitor) vs. response-variable slope (four parameters).

Test [3] addresses T2, mouse ICOS-mFc (Chimerigen). In words: HTRF neutralisation of mouse B7-H2 binding to mouse ICOS-mFc, n3. The method, then:
as §4, §5
A general note: Time-resolved FRET reads energy transfer from a long-lived donor to a nearby acceptor.

The target is the same in test [4]. Put plainly: HTRF neutralisation of mouse B7-H2 binding to mouse ICOS-mFc, average. The method, then: as §4, §5
In test [5] the target is T1, human ICOS-mFc (Chimerigen). In words: DELFIA ELISA, coated human ICOS-mFc, N=1. On the procedure: as §1, §2, §3
Test [6] concerns the target T2, mouse ICOS-mFc (Chimerigen). Put plainly: DELFIA ELISA, coated mouse ICOS-mFc, N=2. The method, then: as §1, §2, §3
The target is the same in test [7]. In words: DELFIA ELISA, coated mouse ICOS-mFc, N=3. The method, then: as §1, §2, §3
The target is the same in test [8]. Put plainly: DELFIA ELISA, coated mouse ICOS-mFc, mean. The method, then:
as §1, §2, §3

B1: STIM001_457 (bispecific antibody, V domains shown, not shown: a dimerising Fc or GST)
VH: QVQVVQSGAEVKKPGASVKVSCKASGYTFSTFGITWVRQAPGQGLEWMGWISAYNGDTNYAQNLQGRVIMTTDTSTSTAYMELRSLRSDDTAVYYCARSSGHYYYYGMDVWGQGTTVTVSS
VL: DIVMTQSPLSLPVTPGEPASISCRSSQSLLHSNEYNYLDWYLQKPGQSPQLLIFLGSNRASGVPDRFSGSGSGTDFTLKITRVEAEDVGIYYCMQSLQTPLTFGGGTKVEIK
notes: mAb^2 IgG1; also called STIM001_457 mAb^2
The EC50 is the midpoint of the concentration-response curve. A word on the IC50: it is the concentration needed to halve the response being measured. Read a low IC50 as inhibition by little substance. In test [1], B1 showed an EC50 of 15.3 nM. The IC50 in test [2] was 5.49 nM; in test [3] it was 6.32 nM; in test [4], 5.07 nM.

B2: STIM003_457 (bispecific antibody, V domains shown, not shown: a dimerising Fc or GST)
VH: EVQLVESGGGVVRPGGSLRLSCVASGVTFDDYGMSWVRQAPGKGLEWVSGINWNGGDTDYSDSVKGRFTISRDNAKNSLYLQMNSLRAEDTALYYCARDFYGSGSYYHVPFDYWGQGILVTVSS
VL: EIVLTQSPGTLSLSPGERATLSCRASQSVSRSYLAWYQQKRGQAPRLLIYGASSRATGIPDRFSGDGSGTDFTLSISRLEPEDFAVYYCHQYDMSPFTFGPGTKVDIK
notes: mAb^2 IgG1; also called ST1M003_457; STIM003_457 mAb^2
As for B2, the EC50 amounted to 0.51 nM in test [5], 0.252 nM in test [6], 0.288 nM in test [7] and 0.289 nM in test [8].

Values taken from patent US20260049143A1 (KYMAB, published 2026).
